Results reported in PMC5922973, “Topoisomerase VI senses and exploits both DNA crossings and bends to facilitate strand passage” (eLife, 2018).
Changes are numbered by the printed parent chain.

Columns and labels:
[1] = target: T1, topo VI holoenzyme WT (Methanosarcina mazei) (UniProt Q8PUB7+Q8PUB8); assay: fluorescence anisotropy; details: FA: 20 nM probe, 50 mM K-glutamate, 20 mM HEPES-KOH pH 7.5, 10 mM MgCl2, 5% glycerol, 1 mM TCEP, 0.1 mg/mL BSA; incubated on ice, read at ambient temperature …
T1 sequence 1: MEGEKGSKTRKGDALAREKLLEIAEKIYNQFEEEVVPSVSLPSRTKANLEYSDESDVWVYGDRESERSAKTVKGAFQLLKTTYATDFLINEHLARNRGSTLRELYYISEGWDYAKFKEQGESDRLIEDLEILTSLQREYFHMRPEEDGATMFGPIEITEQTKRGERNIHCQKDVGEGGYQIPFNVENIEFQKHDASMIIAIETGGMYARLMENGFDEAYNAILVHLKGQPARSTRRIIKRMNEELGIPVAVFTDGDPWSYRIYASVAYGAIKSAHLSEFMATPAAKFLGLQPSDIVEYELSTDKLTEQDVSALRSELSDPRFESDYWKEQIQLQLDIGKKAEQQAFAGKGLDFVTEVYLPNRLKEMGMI
T1 sequence 2: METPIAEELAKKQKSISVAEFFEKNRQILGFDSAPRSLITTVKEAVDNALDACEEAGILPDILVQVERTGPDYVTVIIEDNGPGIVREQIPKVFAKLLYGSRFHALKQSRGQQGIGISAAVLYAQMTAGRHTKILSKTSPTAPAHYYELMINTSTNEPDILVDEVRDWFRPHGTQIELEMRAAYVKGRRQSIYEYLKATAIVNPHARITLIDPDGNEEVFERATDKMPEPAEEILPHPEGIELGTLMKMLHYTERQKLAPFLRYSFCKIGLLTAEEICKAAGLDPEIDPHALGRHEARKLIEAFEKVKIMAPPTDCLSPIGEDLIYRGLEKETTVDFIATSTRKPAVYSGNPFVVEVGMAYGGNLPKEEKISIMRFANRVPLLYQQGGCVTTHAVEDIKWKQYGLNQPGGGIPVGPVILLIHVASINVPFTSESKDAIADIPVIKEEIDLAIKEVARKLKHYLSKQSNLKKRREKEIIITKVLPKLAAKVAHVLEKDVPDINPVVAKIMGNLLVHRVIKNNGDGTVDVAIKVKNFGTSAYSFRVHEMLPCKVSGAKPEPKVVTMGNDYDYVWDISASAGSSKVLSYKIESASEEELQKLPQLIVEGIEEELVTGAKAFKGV

[2] = target: T2, topo VI H2TH-AAA R263A;K268A;K308A (Methanosarcina mazei) (UniProt Q8PUB7+Q8PUB8); assay: competition (fluorescence anisotropy); details: vs FAM 70 bp; FA: 20 nM probe, 50 mM K-glutamate, 20 mM HEPES-KOH pH 7.5, 10 mM MgCl2, 5% glycerol, 1 mM TCEP, 0.1 mg/mL BSA; incubated on ice, read at ambient temperature …
T2 sequence 1: T1 sequence 1
T2 sequence 2: T1 sequence 2 with R263A, K268A, K308A

[3] = target: T3, topo VI KGRR-AAA K186A;R188A;R189A (Methanosarcina mazei) (UniProt Q8PUB7+Q8PUB8); assay: competition (fluorescence anisotropy); details: vs FAM 70 bp; FA: 20 nM probe, 50 mM K-glutamate, 20 mM HEPES-KOH pH 7.5, 10 mM MgCl2, 5% glycerol, 1 mM TCEP, 0.1 mg/mL BSA; incubated on ice, read at ambient temperature …
T3 sequence 1: T1 sequence 1
T3 sequence 2: T1 sequence 2 with K186A, R188A, R189A

[4] = target: T4, topo VI KGRR-EEE K186E;R188E;R189E (Methanosarcina mazei) (UniProt Q8PUB7+Q8PUB8); assay: competition (fluorescence anisotropy); details: vs FAM 70 bp; FA: 20 nM probe, 50 mM K-glutamate, 20 mM HEPES-KOH pH 7.5, 10 mM MgCl2, 5% glycerol, 1 mM TCEP, 0.1 mg/mL BSA; incubated on ice, read at ambient temperature …
T4 sequence 1: T1 sequence 1
T4 sequence 2: T1 sequence 2 with K186E, R188E, R189E

[5] = target: T1, topo VI holoenzyme WT (Methanosarcina mazei); assay: competition (fluorescence anisotropy); details: vs FAM 70 bp; FA: 20 nM probe, 50 mM K-glutamate, 20 mM HEPES-KOH pH 7.5, 10 mM MgCl2, 5% glycerol, 1 mM TCEP, 0.1 mg/mL BSA; incubated on ice, read at ambient temperature …
[6] = target: T5, topo VI H2TH-EEE R263E;K268E;K308E (Methanosarcina mazei) (UniProt Q8PUB7+Q8PUB8); assay: competition (fluorescence anisotropy); details: vs FAM 70 bp; FA: 20 nM probe, 50 mM K-glutamate, 20 mM HEPES-KOH pH 7.5, 10 mM MgCl2, 5% glycerol, 1 mM TCEP, 0.1 mg/mL BSA; incubated on ice, read at ambient temperature …
T5 sequence 1: T1 sequence 1
T5 sequence 2: T1 sequence 2 with R263E, K268E, K308E

[7] = target: the molecule itself; assay: FRET or BRET; bulk FRET between Alexa555 and Alexa647 on Cys155 of the two Top6B in the holoenzyme; 200 nM topo VI with 100 uM bp sheared salmon-sperm (short linear) DNA, before and over time after 1 mM AMPPNP; 50 mM potassium glutamate, 20 mM HEPES-KOH pH 7.5, 10 mM MgCl2
[8] = target: the molecule itself; assay: FRET or BRET; bulk FRET between Alexa555 and Alexa647 on Cys155 of the two Top6B in the holoenzyme; 200 nM topo VI with 100 uM bp supercoiled plasmid DNA, before and over time after 1 mM AMPPNP; 50 mM potassium glutamate, 20 mM HEPES-KOH pH 7.5, 10 mM MgCl2

**Q.** With 80 bp duplex as the molecule, how does the binding signal (fold Kd of 60 bp duplex) [1] read?
**A.** The binding signal (fold Kd of 60 bp duplex) was 2.

**Q.** How did the Ki [2] turn out when pSG483 negatively supercoiled plasmid was run?
**A.** Its Ki is 1.3 nM.

**Q.** What about the Ki [3] of the same molecule?
**A.** Its Ki is 7.2 nM.

**Q.** And the Ki [4]?
**A.** The Ki was 14.7 nM.

**Q.** And the Ki [5]?
**A.** The Ki was 0.6 nM.

**Q.** What about the Ki [6] of the same molecule?
**A.** The Ki was 10 nM.

B1: M. mazei Top6B cyslite-155C, Alexa555/Alexa647-labeled, in the topo VI holoenzyme (enzyme, Methanosarcina mazei)
chain: T1 sequence 2 with T155C, C267S, C278A, C316A, C550A
modifications: Alexa Fluor 555 C2 maleimide or Alexa Fluor 647 C2 maleimide on Cys155
notes: Top6B of Methanosarcina mazei topo VI, 'cys-lite' with Thr155 changed to cysteine; Stood in the assay as part of the A2B2 holoenzyme with Top6A; population is a mix of donor-acceptor (50%), acceptor-acceptor (25%) and donor-donor (25%) labeled enzymes; also called topo VI^cyslite-155C; TopoVI^cyslite-155C; not shown: His6, N-terminal, cleaved
**Q.** Does B1 bind [7]?
**A.** Result: binds

B2: M. mazei Top6B KGRR^AAA cyslite-155C, Alexa555/Alexa647-labeled, in the topo VI holoenzyme (enzyme, Methanosarcina mazei)
chain: T1 sequence 2 with T155C, K186A, R188A, R189A, C267S, C278A, C316A, C550A
modifications: Alexa Fluor 555 C2 maleimide or Alexa Fluor 647 C2 maleimide on Cys155
notes: Top6B of Methanosarcina mazei topo VI, cyslite-155C with the KGRR^AAA mutations; Stood in the assay as part of the A2B2 holoenzyme with Top6A; also called Top6AB-KGRR^AAA cyslite-155C; KGRR^AAA FRET assay construct; not shown: His6, N-terminal, cleaved
**Q.** Does B2 bind [8]?
**A.** Result: binds

B3: M. mazei Top6B H2TH^AAA cyslite-155C, Alexa555/Alexa647-labeled, in the topo VI holoenzyme (enzyme, Methanosarcina mazei)
chain: T1 sequence 2 with T155C, R263A, C267S, K268A, C278A, K308A, C316A, C550A
modifications: Alexa Fluor 555 C2 maleimide or Alexa Fluor 647 C2 maleimide on Cys155
notes: Top6B of Methanosarcina mazei topo VI, cyslite-155C with the H2TH^AAA mutations; Stood in the assay as part of the A2B2 holoenzyme with Top6A; also called Top6AB-H2TH^AAA cyslite-155C; not shown: His6, N-terminal, cleaved
**Q.** Does B3 bind [8]?
**A.** Result: binds
